Publication PMC11266487

Molecular target: angiotensin converting enzyme 2 (ACE2) (human (endogenous in BCi.NS1.1)) (UniProt Q9BYF1)
Sequence of UniProt Q9BYF1 (Q9BYF1 18-805): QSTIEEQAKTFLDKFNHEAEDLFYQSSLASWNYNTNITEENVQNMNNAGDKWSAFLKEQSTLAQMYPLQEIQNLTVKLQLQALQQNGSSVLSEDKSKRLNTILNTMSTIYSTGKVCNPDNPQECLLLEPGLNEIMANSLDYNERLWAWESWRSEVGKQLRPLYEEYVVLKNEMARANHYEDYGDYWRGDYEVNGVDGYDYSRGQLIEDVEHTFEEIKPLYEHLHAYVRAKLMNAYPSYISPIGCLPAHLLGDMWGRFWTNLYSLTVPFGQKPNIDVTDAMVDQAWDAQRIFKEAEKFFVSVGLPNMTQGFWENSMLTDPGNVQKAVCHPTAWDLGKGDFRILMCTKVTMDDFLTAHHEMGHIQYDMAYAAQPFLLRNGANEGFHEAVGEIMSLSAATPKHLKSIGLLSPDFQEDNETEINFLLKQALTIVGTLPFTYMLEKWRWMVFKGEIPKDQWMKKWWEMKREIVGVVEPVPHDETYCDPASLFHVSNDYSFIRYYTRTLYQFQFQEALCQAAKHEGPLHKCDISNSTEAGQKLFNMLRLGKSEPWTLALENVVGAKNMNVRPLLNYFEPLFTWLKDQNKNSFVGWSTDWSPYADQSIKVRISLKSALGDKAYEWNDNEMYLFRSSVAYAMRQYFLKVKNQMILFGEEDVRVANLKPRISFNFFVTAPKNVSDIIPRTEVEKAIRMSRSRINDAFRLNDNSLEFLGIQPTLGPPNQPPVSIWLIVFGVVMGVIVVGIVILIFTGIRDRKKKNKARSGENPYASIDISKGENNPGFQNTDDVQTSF

Substance	Ki for reduction of cAMP-activated CFTR chloride channel activity (Ussing chamber, differentiated BCi.NS1.1 epithelia)
β-1.351 [S1S2] spike protein (natural protein)	0.21 µg/mL
Wuhan-Hu-1 [S1S2] spike protein (natural protein)	0.446 µg/mL
